Measurements from US20260234236A1 (INTERVET, published 2026).
Numbering of substitutions follows the chain as printed. Numbers in names are those of the source.

T1: Recombinant canine IL-4 (R&D Systems, Catalog: 752-CL/CF) (canine, UniProt O77762 25-132)
T1 sequence (looked up): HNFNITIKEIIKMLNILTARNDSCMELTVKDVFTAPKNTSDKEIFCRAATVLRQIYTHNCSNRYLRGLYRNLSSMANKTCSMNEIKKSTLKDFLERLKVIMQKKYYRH

T2: Canine IL-4 with C-terminal Avi-HIS tag (canine, biotin label when loaded on SA biosensors (Example 4); site not stated)
T2 construct: also called cIL-4; biotinylated avitag-cIL-4
T2 chain: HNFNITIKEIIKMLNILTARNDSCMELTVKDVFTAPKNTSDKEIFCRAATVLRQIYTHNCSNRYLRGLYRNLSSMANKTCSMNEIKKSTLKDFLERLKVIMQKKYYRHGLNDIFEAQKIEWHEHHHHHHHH

T3: Canine IL-13 with C-terminal Avi-HIS tag (canine, biotin label when loaded on SA biosensors (Example 4); site not stated)
T3 construct: also called cIL-13; biotinylated avitag-cIL13
T3 chain: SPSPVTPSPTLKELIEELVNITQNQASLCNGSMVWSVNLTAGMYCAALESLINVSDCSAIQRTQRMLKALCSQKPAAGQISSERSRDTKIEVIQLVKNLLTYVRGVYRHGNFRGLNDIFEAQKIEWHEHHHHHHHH

B1: IL4-P4-1G3VH-cIgGB/IL4-P4-1G3VL-cCL (antibody, V domains shown)
VH: EVQLVESGGDLVKPGGSLRLSCVASGFTFSSYDMDWVRQAPGKGLEWLSEISTNGDRTHYADAVKGRFAISRDNAKNTVYLQMNSLRAEDTAIYYCVRDGYEYLAFDYWGQGTLVTVSS
VL: QSVLNQLPSLSMNMGETATFTCEGDNIGHKYVNWYQQKPGQAPVLTIYEDNKRPSGIPERFSGSNSGNTATLTISGARAEDEADYYCESEVSTGIVFGGGTHLTVLG
notes: Full-length canine IgG-B
B2: IL4-P3-1C4VH-cIgGB/IL4-P3-1C4VL-cCL (antibody, V domains shown)
VH: EVPLVESGGDLVKPGGSLRISCVASGITFNNDDMGWVRQAPGKGLQWLAEISSSGTSTYYADAVKGRFTISRDNAKNTVYLQMNSLKAEDTGVYYCVGEDGYMALGFWGQGTLVTVSS
VL: QAVLNQPASVSGSLGQRVTISCSGSTNNIGVVGASWYQQFPGKAPKLLVYSDGDRPSGVPDRFSGSNSGYSDTLTITGLQAEDEADYYCQSFDTTLNAYVFGSGTQLTVLG
notes: Full-length canine IgG-B; also called IL4 P3-1 C4 5LC
B3: IL4-P3-1B9VH-cIgGB/IL4-P3-1B9VL-cCL (antibody, V domains shown)
VH: ELQLVELGGDLVKPGGSLRLSCVASGFTFSSYGMSWVRQSPGKGLQWVADISSSGSTYYADAVKGRFTISRDNAKSTLYLQMNSLRAEDTAVYYCAKAGYGSYYDFGMDYWGHGTSVFVSS
VL: QAVLTQPASVSAALGQRVTISCTGTATNVGGGYDVQWYQQFPGRPPKTIIYGNYNRPSGVPDRFSASTSGTTATLTITGIQVADEADYYCQSFDTTFNGHVFGAGTQLTILG
notes: Full-length canine IgG-B
B4: IL4-P3-1D7VH-cIgGB/IL4-P3-1D7VL-cCL (antibody, V domains shown)
VH: EVQLVQSGGDLVKPGGSLRLSCVASGFAFNGYDMDWVRLAPGKGLQWLSEISSSGSPTYYADAVEGRFTISRDNAKNTLYLQMDSLRAEDTAVYYCARAGEYTYGYEGYYFDYWGQGTLVTVSS
VL: QSMLTQPASVSGSLGQRVAISCSGSTNNIGIFGATWYQHLPGKAPKFLLYSDGNRPSGVPDRFSGSDSGNSVTLMITALQAEDEADYYCQSFDTTLGAYVFGSGTQLTILG
notes: Full-length canine IgG-B; also called IL4-P3-1D7VH-cIgGB/IL4-P3-D7VL-cCL
B5: IL4-P3-1A6VH-cIgGB/IL4-P3-1A6VL-cCL (antibody, V domains shown)
VH: EVPLVESGGDLVKPGGSLRLSCVASGFTFHNYDLSWIRQLPGGGLQWVADIDKSGLTFYADAVKGRFTISRDNAKNTLYLQMNSLRAEDTAVYYCATWPLGSWYTETFEYWGQGTLVTVSS
VL: QPVLTQPPSVSAALGQRVTISCNTNIGSPYDVQWYQQLPGKSPKTIIYGNSNRPSGVPVRFSGSKSGSTATLTIAGIQAEDEADYYCQSYDDNVDGYVFGSGTQLTVLG
B6: IL4-P4A-1F10VH-cIgGB/IL4-P4A-1F10VL-cCL (antibody, V domains shown)
VH: EVQLVQSGGDLVKPAGSLRLSCVASGFTFNSYAMSWVRQAPGKGLQWVAGINSGGSTTTYADAVKGRFTISRDNAKNTLYLQMNSLRAEDTAVYYCAKDQNSYYPSDTFEYWGQGTLVTVSS
VL: QTVVTQEPSLSVSPGGTVTLTCGLSSGSVSTGNYPGWYQQTQGRAPRSIIYDTNSRPSGVPDRFSGSISGNKAVLTITGAQPEDEADYYCSLYTGIAYTDVVFGGGTHLTVLG
notes: Full-length canine IgG-B; also called IL4-1F10; IL4 1F10
B7: IL4-P4A-1A4VH-cIgGB/IL4-P4A-1A4VL-cCL (antibody, V domains shown)
VH: EVQLVESGGDLVKPGGSLRLSCVASGFNFSRYSMSWVRQAPEKGLQLVAAVNSGGSRTWYADAVQGRFTVSRDNAKNTLFLEMSSLKLEDTAMYYCAKDLWSTTIAEYDYWGQGTLVTVSS
VL: SYVLSQPPSVSVTPSETAHITCGGNNIGSKYVQWIRQSAGQAPVTIIYGNTNRPTGIPERFSGANSGNTATLTISGVLAEDEADYYCQVGDTDTTVFGGGTHLTVL
B8: IL4-P3-1B10VH-cIgGB/IL4-P3-1B10VL-cCL (antibody, V domains shown)
VH: EVQLVESGGDLVKPGGSLRLSCVASGFTFSNYDMSWVRQAPGKGLQWVSTISYDGNNTYYSDAVKGRFTISRDNARNTLYLQMNSLRAEDTAVYYCAKEFDIPWDNFDYWGQGTLVTVSS
VL: QSVLTQPTSVSAALGQRVTISCTGSNANIGSVYDVQWYQQLPGKSPKTIIYGNTHRPSGVPVRFSGSKSGSTATLTITGIQAEDEADYYCQSYDATLHYVFGSGTQLTVLG
B9: IL4-P3-1B10VHm-cIgGB/IL4-P3-1B10VL-cCL (antibody, V domains shown)
VH: B8 VH with N56Q
VL: B8 VL
notes: Full-length canine IgG-B; also called IL4 P3-1 B10m
B10: IL 13 P3-1C6 scFv (scFv)
scFv: QSVLTQPASVSGSLGQRVTISCSGRTNNIGYFGANWYQQVPGKAPKLLVSSYGNRPSGVPDRFSASNSANSATLTITGLQAEDEADYYCQSFDTTLGAVVFGGGTQLTVLGGGSSRSSSSGGGGSGGGGELTLQESGPGLVKPSQTLSLTCVVSGGSVTNTYEWDWIRQRPGRGLEWMGSWTDNTWYNPAFQGRISITADTAKNQLSLQLSSVTTGDTAVYFCARWTKRWGYDYWGQGTLVTVSSASTTAPSVTSGQAGQ
notes: scFv purified from E. coli periplasm on Ni-NTA; also called IL13 1C6
B11: IL13 P3-1 G5 scFv (scFv)
scFv: SYELTQPPSVSVSLGQTATISCSGESLSKYYAQWFQQKAGQAPVLVIYQDTERPSGIPDRFSGSSSGNTHTLTISGARAEDEADYYCESAISPDTYVFGSGTQLTILGGGSSRSSSSGGGGSGGGGEVQLVQSGGDLVKPGGTLRLSCVASGFTFSSYDMSWVRQSPGKGLQWVAAIWNDGSNTEYADAVKGRFTVSRDNAKNTVYLEMNSLRAEDTAMYYCVKEGPSYGYFDYWGQGTLVTVSSASTTAPSVTSGQAGQ
notes: scFv purified from E. coli periplasm on Ni-NTA
B12: IL13 P3-1 B4 scFv (scFv)
scFv: SYVLTQSPSVSGSLGQTVTISCSGTTIGVVGANWYQQLPGKAPKLLVHSDGGRLSGVPDRFSGSESGNSAALTITGLQAEDEADYYCQSFDTTLGYVFGSGTQLTILGGGSSRSSSSGGGGSGGGGELTLQESGPGLVKPSQTLSLTCVVSGGSVTSNYYWNWIRQRPGRGLEWMGYWTGSTNYNPAFQGRISITADTAKNHFSLQLTSMTTEDTAVYYCARASTWLHGMDFWGHGTSLFVSSESPSPPNLTSGQAGQ
notes: as for B11
B13: IL13 P3-1 C2 scFv (scFv)
scFv: QAVLNQPASVSGSLGQRVTISCSGSSSNIGRGFVGWYQQLPGTRPKTLIYGDTFRPSGVPDRFFGSRSGSTATLTISGLQAEDEADYYCSTWDDSLAALLFGGGTHLTVLGGGSSRSSFSGGGGSGGGGEVQLVESGGDLVKPGGSLRLSCAASGFTFTDYDMSWVRQAPGKGLQWVATTSNGGSGTYYSDAVKGRFTISRDNAKNTLYLEMNRLRAEDTAVYYCVKEIYPASIDFWGLGTLVTVSSASTTAPSVTSGQAGQ
notes: as for B11

Molecular target: T1, Recombinant canine IL-4 (R&D Systems, …)
Experiment: cell-based or functional assay

IL-4 IC50 (nM); inhibition of canine IL-4 mediated STAT6 phosphorylation in DH82 cells | Binder
8.31 nM | B1
5.41 nM | B2
3.77 nM | B3
37.6 nM | B4
0.56 nM | B5
0.58 nM | B6
4.24 nM | B7
87.8 nM | B8
30 nM | B9

Molecular target: T2, Canine IL-4 with C-terminal Avi-HIS tag
Experiment: BLI (OCTET HTX); biotin-mAb on SA biosensors, cIL-4 in solution; 1:1 model
Method: Selected scFv specific to cIL-4 or cIL-13 were converted into full length canine IgG mAbs and tested for binding by OCTET. All kinetics measurements were performed by OCTET HTX using SA biosensors and Data Acquisition 12.0 software. First, each biotin-labeled full-length anti-canine IL-4 or anti-canine IL-13 mAb, at a concentration of 5 μg/mL, were loaded onto the pre-rehydrated SA biosensors until binding signal change ascended to a […] threshold for all channels from the step start or for a maximum of 1200s to insure equal loading density. Second, the biosensors were placed into OCTET Kinetics Buffer (PBS+0.02% Tween20, 0.1% BSA) for the blocking phase for 60s. Third, for the association phase, full-length anti-canine IL-4 mAb or anti-canine IL-13 mAb loaded biosensors were placed into 2-fold serial dilutions from 1000 nM down to 15.6 nM of cIL-4 or cIL-13, respectively, in OCTET Kinetics Buffer for 60s. The last well was buffer alone and that sensor was used for reference sensor subtraction. Finally, the biosensors were placed into OCTET Kinetics Buffer for the dissociation phase for 180s. Analysis was performed using Data Analysis 12.0 software and curves were fitted using a 1:1 binding model.

Kd | koff | kon | Binder
1.51 nM | 0.00243 s⁻¹ | 1.61e+06 M⁻¹ s⁻¹ | B1
10.5 nM | 0.0189 s⁻¹ | 1.8e+06 M⁻¹ s⁻¹ | B2
0.0635 nM | 2.11e-05 s⁻¹ | 212000 M⁻¹ s⁻¹ | B3
2.01 nM | 0.00226 s⁻¹ | 1.12e+06 M⁻¹ s⁻¹ | B4
0.305 nM | 0.000114 s⁻¹ | 374000 M⁻¹ s⁻¹ | B6
0.622 nM | 0.000809 s⁻¹ | 1.3e+06 M⁻¹ s⁻¹ | B9

Molecular target: T3, Canine IL-13 with C-terminal Avi-HIS tag
Experiment: BLI (OCTET HTX); biotin-cIL-13 on SA biosensors, scFv in solution; 1:1 model
Method: The in vitro binding of anti-canine IL-4 scFv and IL-13 scFv to canine IL-4 and canine IL-13, respectively, was determined by OCTET HTX using SA biosensors and Data Acquisition 12.0 software. First, biotin-labeled antigen (cIL-4 or cIL-13) was loaded onto the pre-rehydrated SA biosensors for 60 seconds (60s) at a concentration of 5 μg/mL. Second, the biosensors were placed into the OCTET Kinetics Buffer (PBS+0.02% Tween20, 0.1% BSA) for the blocking phase for 120s. Third, for the association phase, cIL-4 or cIL-13 antigen loaded biosensors were placed into 2-fold serial dilutions from 500 nM down to 7.8 nM of anti-cIL-4 or anti-cIL-13 scFvs, respectively, in OCTET Kinetics Buffer for 60s. The last well was buffer alone and that sensor was used for reference sensor subtraction. Finally, the biosensors were placed into OCTET Kinetics Buffer for the dissociation phase for 300s. The analysis was performed using Data Analysis 12.0 software and curves were fitted using a 1:1 binding model.

Kd | koff | kon | Binder
45.2 nM | 0.0107 s⁻¹ | 304000 M⁻¹ s⁻¹ | B10
158 nM | 0.0158 s⁻¹ | 104000 M⁻¹ s⁻¹ | B11
13.1 nM | 0.00224 s⁻¹ | 320000 M⁻¹ s⁻¹ | B12
77.4 nM | 0.00192 s⁻¹ | 29600 M⁻¹ s⁻¹ | B13
